The source of these data is US20040077535A1 (Takeda / Millennium, published 2004).

In assay [1] the target is T1, G protein-coupled receptor protein ZAQ (human, UniProt Q8TCW9 1-393).
T1 construct: Stably expressed in CHO/dhfr- cells (clone ZAQC-B1); Whole cells in the FLIPR assays; also called ZAQ receptor; ZAQC-B1 cells
Briefly: displacement of 125I-MIT1 from ZAQC-B1 CHO cell membrane fraction, glass fiber filter binding assay.

The target of assay [2] is T2, human type I5E receptor protein (human, UniProt Q8NFJ6 1-384).
T2 construct: Stably expressed in CHO/dhfr- cells (clone I5E-4); Whole cells in the FLIPR assays; also called ISE receptor; I5E-4 cell
T2 sequence (Q8NFJ6 whole entry): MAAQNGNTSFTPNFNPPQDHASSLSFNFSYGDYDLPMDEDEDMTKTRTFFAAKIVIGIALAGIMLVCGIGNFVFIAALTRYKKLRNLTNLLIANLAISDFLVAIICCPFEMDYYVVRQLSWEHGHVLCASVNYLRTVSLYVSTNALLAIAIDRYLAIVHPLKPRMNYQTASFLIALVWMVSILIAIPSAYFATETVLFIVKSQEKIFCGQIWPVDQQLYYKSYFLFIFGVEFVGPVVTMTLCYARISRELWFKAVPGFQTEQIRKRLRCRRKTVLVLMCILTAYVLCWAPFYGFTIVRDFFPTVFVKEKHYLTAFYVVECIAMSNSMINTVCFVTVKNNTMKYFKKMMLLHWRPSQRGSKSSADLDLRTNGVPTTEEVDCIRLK
Briefly: displacement of 125I-MIT1 from I5E-4 CHO cell membrane fraction, glass fiber filter binding assay.

Assay [3] has as its target T1, G protein-coupled receptor protein ZAQ. Briefly: cell-based or functional assay.

T1 sequence (Q8TCW9 whole entry): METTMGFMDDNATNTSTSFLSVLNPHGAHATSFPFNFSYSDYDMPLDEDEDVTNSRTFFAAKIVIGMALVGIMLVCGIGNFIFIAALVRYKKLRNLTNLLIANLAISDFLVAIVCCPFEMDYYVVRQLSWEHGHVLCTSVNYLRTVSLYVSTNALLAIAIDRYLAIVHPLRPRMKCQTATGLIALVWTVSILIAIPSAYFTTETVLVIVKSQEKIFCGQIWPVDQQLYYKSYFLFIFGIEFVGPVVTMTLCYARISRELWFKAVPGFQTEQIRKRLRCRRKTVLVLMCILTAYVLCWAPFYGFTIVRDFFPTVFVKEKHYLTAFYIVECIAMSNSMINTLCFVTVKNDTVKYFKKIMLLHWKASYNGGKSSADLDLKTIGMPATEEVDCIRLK

B1: snake venom Mamba Intestinal Toxin 1 (MIT1) (ligand)
peptide: AVITGACERDLQCGKGTCCAVSLWIKSVRVCTPVGTSGEDCHPASHKIPFSGQRMHHTCPCAPNLACVQTSPKKFKCLSK
notes: also called snake venom MIT1; non-labeled MIT1
For the molecule B1, the IC50 in assay [1] turned out to be 0.038 nM; in assay [2] it was 0.032 nM.

B2: human type ZAQ ligand mature peptide (type G, 86 amino acid residues) (ligand)
peptide: AVITGACERDVQCGAGTCCAISLWLRGLRMCTPLGREGEECHPGSHKVPFFRKRKHHTCPCLPNLLCSRFPDGRYRCSMDLKNINF
notes: also called human type ZAQ ligand peptide; ZAQL-1
Turning to B2, the IC50 in assay [1] turned out to be 0.035 nM; in assay [2] it was 0.093 nM. In addition, the “increase of the intracellular calcium ion concentration (FLIPR), EC50” value in assay [3] was 0.096 nM.
